Reference: patent US20180298083A1 (US Dept. of Health and Human Services, published 2018)
Read-outs that look alike come from different tables or passages of the source.

Columns and labels:
[1] = target: CAAN.A2 (HIV-1); assay: cell-based or functional assay
[2] = target: CAAN.A2 (HIV-1); assay: cell-based or functional assay; remark: listed apart in the source
[3] = target: CAAN.A2 (HIV-1); assay: cell-based or functional assay; remark: listed apart in the source
[4] = target: T1, SSB, Sjogren syndrome antigen B (Homo sapiens (Human), UniProt P05455 1-408); assay: Luminex AtheNA Multi-Lyte ANA test
T1 construct: also called SS-B/La
T1 sequence: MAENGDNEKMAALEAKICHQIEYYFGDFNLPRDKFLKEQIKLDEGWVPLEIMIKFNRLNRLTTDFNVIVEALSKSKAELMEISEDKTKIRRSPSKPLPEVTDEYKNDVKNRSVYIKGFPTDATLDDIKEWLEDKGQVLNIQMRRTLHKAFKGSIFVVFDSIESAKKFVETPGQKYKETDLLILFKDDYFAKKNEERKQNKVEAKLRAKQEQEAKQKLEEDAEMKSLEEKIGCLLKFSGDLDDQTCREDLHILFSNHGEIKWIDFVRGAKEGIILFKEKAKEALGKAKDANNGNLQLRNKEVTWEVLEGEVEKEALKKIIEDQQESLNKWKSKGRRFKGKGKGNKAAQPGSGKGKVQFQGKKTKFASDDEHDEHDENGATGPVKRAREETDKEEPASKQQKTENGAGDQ

[5] = target: Histone; assay: Luminex AtheNA Multi-Lyte ANA test
[6] = target: Sm, Smith antigen; assay: Luminex AtheNA Multi-Lyte ANA test
[7] = target: T2, SSA, Sjogren's syndrome antigen A; assay: Luminex AtheNA Multi-Lyte ANA test
T2 construct: also called SSA/Ro

[8] = target: T1, SSB, Sjogren syndrome antigen B; assay: Luminex AtheNA Multi-Lyte ANA test; remark: listed apart in the source
[9] = target: T3, Jo1 antigen; assay: Luminex AtheNA Multi-Lyte ANA test
T3 construct: also called Jol

[10] = target: CentrB, centromere B; assay: Luminex AtheNA Multi-Lyte ANA test
[11] = target: RNP, ribonucleoprotein; assay: Luminex AtheNA Multi-Lyte ANA test
[12] = target: T4, monomeric gp120^JRCSF (HIV-1 strain JRCSF, UniProt P20871 32-503); assay: gp120 capture ELISA
T4 construct: domain: gp120

Sequence of CentrB, centromere B (P07199 2-599): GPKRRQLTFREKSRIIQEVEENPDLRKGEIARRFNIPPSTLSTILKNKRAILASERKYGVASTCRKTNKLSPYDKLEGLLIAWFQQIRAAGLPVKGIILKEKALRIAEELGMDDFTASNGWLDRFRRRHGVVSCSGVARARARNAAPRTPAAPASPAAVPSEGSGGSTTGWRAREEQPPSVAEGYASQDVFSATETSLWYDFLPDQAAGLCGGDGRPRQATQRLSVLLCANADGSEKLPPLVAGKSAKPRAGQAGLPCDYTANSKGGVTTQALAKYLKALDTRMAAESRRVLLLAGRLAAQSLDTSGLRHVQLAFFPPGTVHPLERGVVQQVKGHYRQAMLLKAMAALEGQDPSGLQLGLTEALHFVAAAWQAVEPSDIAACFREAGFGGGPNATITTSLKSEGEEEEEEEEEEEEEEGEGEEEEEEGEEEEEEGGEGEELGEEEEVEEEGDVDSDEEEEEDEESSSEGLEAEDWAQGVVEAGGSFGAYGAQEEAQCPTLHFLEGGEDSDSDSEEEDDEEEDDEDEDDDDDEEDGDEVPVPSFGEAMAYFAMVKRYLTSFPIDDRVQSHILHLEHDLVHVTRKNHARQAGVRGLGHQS

B1: VRC01 (antibody, V domains shown)
VH: QVQLVQSGGQMKKPGESMRISCRASGYEFIDCTLNWIRLAPGKRPEWMGWLKPRGGAVNYARPLQGRVTMTRDVYSDTAFLELRSLTVDDTAVYFCTRGKNCDYNWDFEHWGRGTPVIVSS
VL: EIVLTQSPGTLSLSPGETAIISCRTSQYGSLAWYQQRPGQAPRLVIYSGSTRAAGIPDRFSGSRWGPDYNLTISNLESGDFGVYYCQQYEFFGQGTKVQVDI
In the case of B1, the “neutralisation IC50” value [1] is reported as 1.06 µg/mL, the “neutralisation IC50” value [2] is reported as 1.06 µg/mL and the “neutralisation IC50” value [3] is reported as 1.06 µg/mL.

B2: N6 antibody (antibody, V domains shown)
VH: RAHLVQSGTAMKKPGASVRVSCQTSGYTFTAHILFWFRQAPGRGLEWVGWIKPQYGAVNFGGGFRDRVTLTRDVYREIAYMDIRGLKPDDTAVYYCARDRSYGDSSWALDAWGQGTTVVVSA
VL: YIHVTQSPSSLSVSIGDRVTINCQTSQGVGSDLHWYQHKPGRAPKLLIHHTSSVEDGVPSRFSGSGFHTSFNLTISDLQADDIATYYCQVLQFFGRGSRLHIK
notes: also called N6 mAb
With B2 the binding result [4] was “no binding (tested: 50 µg/ml)”, the “Luminex reactivity (unit not given)” value [5] was 50.6 and the “Luminex reactivity (unit not given)” value [6] was 5.2. For the same binder, the “Luminex reactivity (unit not given)” value [7] was 36.4, the “Luminex reactivity (unit not given)” value [8] was 100 and the “Luminex reactivity (unit not given)” value [9] was 56.4. For the same binder, the “Luminex reactivity (unit not given)” value [10] was 22 and the “Luminex reactivity (unit not given)” value [11] was 16.8.

B3: VRC-PG04 (antibody, V domains shown)
VH: QVQLVQSGSGVKKPGASVRVSCWTSEDIFERTELIHWVRQAPGQGLEWIGWVKTVTGAVNFGSPDFRQRVSLTRDRDLFTAHMDIRGLTQGDTATYFCARQKFYTGGQGWYFDLWGRGTLIVVSS
VL: EIVLTQSPGTLSLSPGETASLSCTAASYGHMTWYQKKPGQPPKLLIFATSKRASGIPDRFSGSQFGKQYTLTITRMEPEDFARYYCQQLEFFGQGTRLEIR
In the case of B3, the “Binding affinity relative to WT (%)” value [12] is reported as 100%.
